Numbering of substitutions follows the chain as printed. Names may count otherwise.
B1: 16H7 variant with light chain substitution V98W (antibody, V domains shown)
VH: not shown
VL: SYVLTQPPSVSVAPGQTARITCGGNNIGSESVHWYQQKPGQAPVLVVYDDSDRPSGIPERFSGSNSGNTATLTISRVEAGDEADYYCQVWDGNSDHVWFGGGTKLTVLG
B2: 16H7 variant with light chain substitution V98Y (antibody, V domains shown)
VH: not shown
VL: B1 VL with W98Y
B3: Ab0204 (antibody, IgG4, V domains shown)
VH: QVTLKESGPVLVKPTETLTLTCTVSGFSLNNARVGVSWIRQPPGKALEWLAHIFSNDEKSYSTSLKSRLTISKDTSKSQVVLTMTNMDPVDTATYYCARSVVTGGYYYEGMDVWGQGTTVTVSS
VL: B1 VL with D91T, W98V
notes: IgG4 PE
B4: Ab0215 (antibody, IgG4, V domains shown)
VH: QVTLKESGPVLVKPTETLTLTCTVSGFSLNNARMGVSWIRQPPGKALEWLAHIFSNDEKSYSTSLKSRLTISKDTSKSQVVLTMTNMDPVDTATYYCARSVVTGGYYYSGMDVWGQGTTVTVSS
VL: B1 VL with N25S, W98V
notes: IgG4 PE
B5: Ab0218 (antibody, IgG4, V domains shown)
VH: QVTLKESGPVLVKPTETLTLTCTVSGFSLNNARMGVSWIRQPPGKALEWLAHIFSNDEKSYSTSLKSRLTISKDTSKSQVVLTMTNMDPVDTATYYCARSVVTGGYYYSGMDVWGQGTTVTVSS
VL: B1 VL with D91T, W98V
notes: IgG4 PE
B6: Ab0182 (antibody, IgG4, V domains shown)
VH: not shown
VL: B1 VL with D50E, W98V
notes: IgG4 PE
B7: Ab0203 (antibody, IgG4, V domains shown)
VH: B3 VH
VL: B1 VL with D50E, W98V
notes: IgG4 PE
B8: Ab0188 (antibody, IgG4, V domains shown)
VH: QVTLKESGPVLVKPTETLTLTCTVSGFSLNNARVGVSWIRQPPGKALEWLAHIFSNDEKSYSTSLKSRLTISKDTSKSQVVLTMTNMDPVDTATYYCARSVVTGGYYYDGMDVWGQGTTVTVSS
VL: B1 VL with D49Y, W98V
notes: IgG4 PE
B9: Ab0208 (antibody, IgG4, V domains shown)
VH: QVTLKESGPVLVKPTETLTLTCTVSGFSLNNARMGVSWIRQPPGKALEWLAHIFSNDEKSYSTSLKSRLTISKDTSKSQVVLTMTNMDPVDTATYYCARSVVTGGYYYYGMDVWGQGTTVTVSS
VL: B1 VL with N25S, W98V
notes: IgG4 PE
B10: Ab0223 (antibody, IgG4, V domains shown)
VH: not shown
VL: B1 VL with D49S, W98V
notes: IgG4 PE
B11: Ab0197 (antibody, IgG4, V domains shown)
VH: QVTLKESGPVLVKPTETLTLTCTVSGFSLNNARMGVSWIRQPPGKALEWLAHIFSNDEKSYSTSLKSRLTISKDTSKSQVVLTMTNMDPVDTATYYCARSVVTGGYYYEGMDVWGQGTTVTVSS
VL: B1 VL with D91T, W98V
notes: IgG4 PE
B12: Ab0221 (antibody, IgG4, V domains shown)
VH: not shown
VL: B1 VL with N25A, W98V
notes: IgG4 PE
B13: Ab0190 (antibody, IgG4, V domains shown)
VH: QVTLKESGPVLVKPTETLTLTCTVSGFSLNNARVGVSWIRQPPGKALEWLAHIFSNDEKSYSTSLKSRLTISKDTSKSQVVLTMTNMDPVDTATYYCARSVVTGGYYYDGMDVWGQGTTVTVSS
VL: B1 VL with D91T, W98V
notes: IgG4 PE
B14: Ab0229 (antibody, IgG4, V domains shown)
VH: not shown
VL: B1 VL with D50H, W98V
notes: IgG4 PE
B15: Ab0201 (antibody, IgG4, V domains shown)
VH: B3 VH
VL: B1 VL with N25S, W98V
notes: IgG4 PE
B16: Ab0216 (antibody, IgG4, V domains shown)
VH: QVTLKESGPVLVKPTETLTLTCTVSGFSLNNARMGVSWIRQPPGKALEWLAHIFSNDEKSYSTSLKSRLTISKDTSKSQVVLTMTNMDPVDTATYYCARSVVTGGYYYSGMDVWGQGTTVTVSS
VL: B1 VL with D49Y, W98V
notes: IgG4 PE
B17: Ab0195 (antibody, IgG4, V domains shown)
VH: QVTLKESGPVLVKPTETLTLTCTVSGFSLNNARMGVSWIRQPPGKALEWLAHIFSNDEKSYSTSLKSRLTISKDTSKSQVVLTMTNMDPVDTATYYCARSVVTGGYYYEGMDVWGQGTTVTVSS
VL: B1 VL with D49Y, W98V
notes: IgG4 PE
B18: Ab0196 (antibody, IgG4, V domains shown)
VH: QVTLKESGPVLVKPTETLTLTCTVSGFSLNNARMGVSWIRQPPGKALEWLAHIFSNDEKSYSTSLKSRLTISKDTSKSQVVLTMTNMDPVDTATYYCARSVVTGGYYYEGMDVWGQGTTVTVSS
VL: B1 VL with D50E, W98V
notes: IgG4 PE
B19: Ab0189 (antibody, IgG4, V domains shown)
VH: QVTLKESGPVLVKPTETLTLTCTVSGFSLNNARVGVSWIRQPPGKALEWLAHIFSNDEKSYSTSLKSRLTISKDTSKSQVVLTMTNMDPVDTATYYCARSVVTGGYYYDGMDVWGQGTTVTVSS
VL: B1 VL with D50E, W98V
notes: IgG4 PE
B20: Ab0219 (antibody, IgG4, V domains shown)
VH: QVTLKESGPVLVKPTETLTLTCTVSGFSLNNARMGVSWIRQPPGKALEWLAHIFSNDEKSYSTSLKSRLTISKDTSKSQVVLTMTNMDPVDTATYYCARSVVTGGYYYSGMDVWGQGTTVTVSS
VL: B1 VL with N93E, W98V
notes: IgG4 PE
B21: Ab0234 (antibody, IgG4, V domains shown)
VH: not shown
VL: B1 VL with N93S, W98V
notes: IgG4 PE
B22: Ab0235 (antibody, IgG4, V domains shown)
VH: not shown
VL: B1 VL with N93D, W98V
notes: IgG4 PE
B23: Ab0180 (antibody, IgG4, V domains shown)
VH: not shown
VL: B1 VL with N25S, W98V
notes: IgG4 PE
B24: Ab0225 (antibody, IgG4, V domains shown)
VH: not shown
VL: B1 VL with D49E, W98V
notes: IgG4 PE
B25: Ab0191 (antibody, IgG4, V domains shown)
VH: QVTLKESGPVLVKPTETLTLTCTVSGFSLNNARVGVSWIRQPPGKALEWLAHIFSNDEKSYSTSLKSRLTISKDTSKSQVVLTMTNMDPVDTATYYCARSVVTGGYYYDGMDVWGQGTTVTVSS
VL: B1 VL with N93E, W98V
notes: IgG4 PE
B26: Ab0228 (antibody, IgG4, V domains shown)
VH: not shown
VL: B1 VL with D50A, W98V
notes: IgG4 PE
B27: Ab0230 (antibody, IgG4, V domains shown)
VH: not shown
VL: B1 VL with D50S, W98V
notes: IgG4 PE
B28: Ab0227 (antibody, IgG4, V domains shown)
VH: not shown
VL: B1 VL with D50Y, W98V
notes: IgG4 PE
B29: Ab0212 (antibody, IgG4, V domains shown)
VH: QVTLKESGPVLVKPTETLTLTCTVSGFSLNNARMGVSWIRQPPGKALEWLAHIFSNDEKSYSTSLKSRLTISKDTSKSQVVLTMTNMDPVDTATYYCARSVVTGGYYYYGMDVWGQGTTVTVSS
VL: B1 VL with N93E, W98V
notes: IgG4 PE
B30: Ab0217 (antibody, IgG4, V domains shown)
VH: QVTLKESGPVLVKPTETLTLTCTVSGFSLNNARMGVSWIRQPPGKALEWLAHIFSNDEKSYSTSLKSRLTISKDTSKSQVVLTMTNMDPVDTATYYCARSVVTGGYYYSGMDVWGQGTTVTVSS
VL: B1 VL with D50E, W98V
notes: IgG4 PE
B31: Ab0198 (antibody, IgG4, V domains shown)
VH: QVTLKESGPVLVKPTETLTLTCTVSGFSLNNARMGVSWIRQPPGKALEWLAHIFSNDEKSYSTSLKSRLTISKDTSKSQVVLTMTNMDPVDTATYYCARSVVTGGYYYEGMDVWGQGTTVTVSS
VL: B1 VL with N93E, W98V
notes: IgG4 PE
B32: Ab0205 (antibody, IgG4, V domains shown)
VH: B3 VH
VL: B1 VL with N93E, W98V
notes: IgG4 PE
B33: Ab0194 (antibody, IgG4, V domains shown)
VH: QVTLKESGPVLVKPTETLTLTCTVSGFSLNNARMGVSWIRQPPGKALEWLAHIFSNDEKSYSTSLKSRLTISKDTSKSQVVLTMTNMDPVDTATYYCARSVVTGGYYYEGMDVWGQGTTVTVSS
VL: B1 VL with N25S, W98V
notes: IgG4 PE
B34: Ab0187 (antibody, IgG4, V domains shown)
VH: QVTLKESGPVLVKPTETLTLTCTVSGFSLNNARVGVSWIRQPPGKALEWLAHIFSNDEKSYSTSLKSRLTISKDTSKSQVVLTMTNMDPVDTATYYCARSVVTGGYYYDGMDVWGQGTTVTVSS
VL: B1 VL with N25S, W98V
notes: IgG4 PE
B35: Ab0202 (antibody, IgG4, V domains shown)
VH: B3 VH
VL: B1 VL with D49Y, W98V
notes: IgG4 PE
B36: Ab0222 (antibody, IgG4, V domains shown)
VH: not shown
VL: B1 VL with N25T, W98V
notes: IgG4 PE
B37: Ab0226 (antibody, IgG4, V domains shown)
VH: not shown
VL: B1 VL with D49T, W98V
notes: IgG4 PE

molecular target: T1, human beta-Klotho (KLB) (human, UniProt Q86Z14 53-997); test: BLI off-rate screening, mAb captured, KLB analyte;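 note: Off-rate taken from the dissociation phase, biosensors held in D-PBS with 0.1% BSA over 1800 s, antibody supernatants diluted to 25 µg/mL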
T1 construct: bought protein, used as analyte in the off-rate screening; also called human KLB; β-Klotho
T1 sequence (looked up): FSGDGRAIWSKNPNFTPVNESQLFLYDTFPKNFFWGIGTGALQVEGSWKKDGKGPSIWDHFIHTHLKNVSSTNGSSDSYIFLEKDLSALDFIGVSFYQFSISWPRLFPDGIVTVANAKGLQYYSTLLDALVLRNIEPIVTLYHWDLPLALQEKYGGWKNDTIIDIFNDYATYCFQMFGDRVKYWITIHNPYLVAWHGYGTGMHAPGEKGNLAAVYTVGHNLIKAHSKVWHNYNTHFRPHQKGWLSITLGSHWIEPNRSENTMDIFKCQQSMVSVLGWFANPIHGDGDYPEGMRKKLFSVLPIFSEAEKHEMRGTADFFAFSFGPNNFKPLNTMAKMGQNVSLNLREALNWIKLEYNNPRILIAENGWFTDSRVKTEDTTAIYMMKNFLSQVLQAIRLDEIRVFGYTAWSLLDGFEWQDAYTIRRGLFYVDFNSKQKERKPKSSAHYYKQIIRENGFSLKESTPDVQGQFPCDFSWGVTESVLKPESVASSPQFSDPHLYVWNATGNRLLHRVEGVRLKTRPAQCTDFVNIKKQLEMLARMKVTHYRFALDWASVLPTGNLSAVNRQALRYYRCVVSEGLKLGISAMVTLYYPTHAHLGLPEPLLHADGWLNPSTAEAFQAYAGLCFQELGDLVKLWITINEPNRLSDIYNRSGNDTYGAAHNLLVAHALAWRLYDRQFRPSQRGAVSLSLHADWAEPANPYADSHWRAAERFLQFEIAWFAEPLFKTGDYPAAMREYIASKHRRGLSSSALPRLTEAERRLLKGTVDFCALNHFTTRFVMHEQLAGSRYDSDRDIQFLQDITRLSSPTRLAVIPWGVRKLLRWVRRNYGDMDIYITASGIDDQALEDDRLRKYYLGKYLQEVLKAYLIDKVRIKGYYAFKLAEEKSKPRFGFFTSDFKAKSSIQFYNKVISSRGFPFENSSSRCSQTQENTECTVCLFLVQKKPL

Binder	koff [s⁻¹]
B1	5.6e-05
B2	5.9e-05

molecular target: human FGFR1c + KLB receptor complex on HEK293 iLite FGF21 reporter cells (human, UniProt P11362 22-822; Q86Z14 1-1044); test: cell-based or functional assay
Sequence (P11362 22-822, chain 1 of 2): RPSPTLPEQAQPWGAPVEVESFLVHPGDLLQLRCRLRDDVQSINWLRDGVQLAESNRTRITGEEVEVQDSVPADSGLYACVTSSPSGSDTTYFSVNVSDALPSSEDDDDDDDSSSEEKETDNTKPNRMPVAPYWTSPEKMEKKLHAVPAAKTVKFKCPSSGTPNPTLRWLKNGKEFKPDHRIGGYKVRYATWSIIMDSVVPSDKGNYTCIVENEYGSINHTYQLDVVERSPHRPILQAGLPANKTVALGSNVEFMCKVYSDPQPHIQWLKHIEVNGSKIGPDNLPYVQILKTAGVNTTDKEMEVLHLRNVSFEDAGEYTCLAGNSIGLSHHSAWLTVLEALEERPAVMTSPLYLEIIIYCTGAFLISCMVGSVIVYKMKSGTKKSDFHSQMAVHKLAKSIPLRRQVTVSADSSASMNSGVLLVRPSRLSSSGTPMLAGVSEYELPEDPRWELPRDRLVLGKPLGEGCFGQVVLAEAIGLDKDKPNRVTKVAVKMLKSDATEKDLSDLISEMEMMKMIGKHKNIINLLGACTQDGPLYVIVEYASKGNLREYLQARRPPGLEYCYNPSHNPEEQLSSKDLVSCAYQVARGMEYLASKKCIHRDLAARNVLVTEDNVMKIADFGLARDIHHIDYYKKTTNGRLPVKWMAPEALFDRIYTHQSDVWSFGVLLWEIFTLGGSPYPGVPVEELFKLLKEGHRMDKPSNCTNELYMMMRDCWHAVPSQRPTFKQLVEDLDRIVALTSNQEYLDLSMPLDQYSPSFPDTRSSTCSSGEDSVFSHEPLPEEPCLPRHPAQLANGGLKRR
Sequence (Q86Z14 whole entry, chain 2 of 2): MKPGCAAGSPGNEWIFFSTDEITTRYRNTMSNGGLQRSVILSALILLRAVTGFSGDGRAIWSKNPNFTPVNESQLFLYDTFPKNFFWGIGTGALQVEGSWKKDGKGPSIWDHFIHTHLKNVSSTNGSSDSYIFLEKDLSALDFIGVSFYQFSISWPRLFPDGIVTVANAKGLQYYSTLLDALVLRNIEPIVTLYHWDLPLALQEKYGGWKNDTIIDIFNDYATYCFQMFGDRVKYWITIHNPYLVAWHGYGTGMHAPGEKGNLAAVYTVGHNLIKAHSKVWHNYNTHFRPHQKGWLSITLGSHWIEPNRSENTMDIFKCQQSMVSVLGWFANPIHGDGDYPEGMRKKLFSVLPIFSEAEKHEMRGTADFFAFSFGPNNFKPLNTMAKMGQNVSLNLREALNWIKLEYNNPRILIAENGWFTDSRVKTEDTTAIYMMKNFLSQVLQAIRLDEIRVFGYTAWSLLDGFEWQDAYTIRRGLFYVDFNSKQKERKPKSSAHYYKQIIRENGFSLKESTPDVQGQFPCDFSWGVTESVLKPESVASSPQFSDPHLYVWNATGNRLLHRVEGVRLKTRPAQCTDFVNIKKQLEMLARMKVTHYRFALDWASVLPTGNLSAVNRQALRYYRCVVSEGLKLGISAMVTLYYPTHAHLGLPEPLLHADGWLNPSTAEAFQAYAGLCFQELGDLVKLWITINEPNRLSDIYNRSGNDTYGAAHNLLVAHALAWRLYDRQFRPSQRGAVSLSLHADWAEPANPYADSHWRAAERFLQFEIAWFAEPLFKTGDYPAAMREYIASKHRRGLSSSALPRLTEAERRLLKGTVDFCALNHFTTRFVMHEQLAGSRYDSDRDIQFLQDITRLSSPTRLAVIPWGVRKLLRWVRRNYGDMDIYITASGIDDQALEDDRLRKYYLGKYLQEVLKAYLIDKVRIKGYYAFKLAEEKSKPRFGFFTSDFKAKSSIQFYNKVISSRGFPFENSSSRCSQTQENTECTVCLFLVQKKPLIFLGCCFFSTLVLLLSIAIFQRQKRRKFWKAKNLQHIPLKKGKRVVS

Binder	EC50 [nM]	Emax [%]
B3	0.04	1420
B4	0.04	2000
B5	2.13	1060
B6	0.02	2290
B7	0.05	1600
B8	0.06	2410
B9	0.27	1270
B10	0.06	2050
B11	0.08	2000
B12	0.09	2000
B13	0.05	2370
B14	0.04	1440
B15	0.05	2490
B16	0.27	1180
B17	0.14	2030
B18	0.12	2050
B19	0.06	2760
B20	0.02	2490

Binder	EC50 [nM]	Emax [%]
B21	0.04	1840
B22	0.06	2090
B23	0.05	2710
B24	0.09	1790
B25	0.04	2470
B26	0.04	1380
B27	0.06	1610
B28	0.06	2340
B29	0.07	1640
B30	0.07	1970
B31	0.05	2770
B32	0.02	2120
B33	0.06	2550
B34	0.04	2780
B35	0.07	1510
B36	0.13	2020
B37	0.11	1970

molecular target: T2, human beta-Klotho (KLB) (human, UniProt Q86Z14 53-997); test: SPR
T2 construct: bought protein; also called human KLB
T2 sequence (looked up): T1 sequence (looked up)

Binder	koff [s⁻¹]
B3	0.00133
B4	0.00125
B5	0.00668
B6	0.000577
B7	0.00151
B8	0.00084
B9	0.0021
B10	0.00024
B11	0.00167
B12	0.00011
B13	0.000195
B14	0.000394
B15	0.000336
B16	0.00984
B17	0.00267
B18	0.00194
B19	0.000387
B20	0.000915

Binder	koff [s⁻¹]
B21	0.00011
B22	0.000153
B23	0.00024
B24	0.00104
B25	0.000144
B26	0.000258
B27	0.000111
B28	0.000214
B29	0.00185
B30	0.002
B31	0.000346
B32	0.000334
B33	0.000402
B34	0.000156
B35	0.00161
B36	0.000309
B37	0.00101

molecular target: human FGFR1c/KLB receptor complex on iLite FGF21 Assay Ready Cells (human, UniProt P11362 22-822; Q86Z14 1-1044); test: cell-based or functional assay; for Mean E max (%): reference of the scale not given here
Sequence (P11362 22-822, chain 1 of 2): as the sequence (P11362 22-822, chain 1 of 2) above
Sequence (Q86Z14 whole entry, chain 2 of 2): as the sequence (Q86Z14 whole entry, chain 2 of 2) above

Binder	Mean E max (%)	Mean EC50 [nM]
B1	99	0.099
B2	100	0.109
